Test results taken from the supplement of paper PMC6755084.

B1: F1*; the commonest letter at each place (parent)
chain: GAGACCGCAACTGAAAAGTTGTTATCACTTGTCGTAAGACACTTTGGATGGGTTGAAGTTCTGCACGTAGAAGCAAAAGGC

Variants of: B1
Experiment: fraction ligated after 30 min (ligated reads / total reads); higher = more ligase activity
Conditions: with F1*sub RNA substrate (template-directed ligation), 42 °C
Experimental: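 Chip-synthesised pool of F1* ligase ribozyme variants (all single and double substitutions, single, double and triple deletions in the catalytic core and GAA bulge, plus designed variants) was transcribed with T7 and reacted as a pool with excess substrate F1*sub for 30 min at 42 C in 50 mM EPPS pH 8.5, 25 mM MgCl2. Ligated and unligated bands were separated by PAGE, barcoded by RT and deep sequenced; fraction ligated = ligated reads / total reads per variant, relative activity = FL / FL of wild type (0.826). Sequences are the DNA template of the ribozyme.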
GAGACCGCAACTGAAAAGTTGTAATCACTTGTTGTAAGACACTTTGGATGGGTTGAAGTTCTGCACGTAGAAGCAAAAGGC [T23A C33T] was tested, and the fraction ligated was 0.848.
For GAGACCGCAACTGAAAAGTTGTAATCACTTGTCGTAAGACACTTTGAATGGGTTGAAGTTCTGCACGTAGAAGCAAAAGGC [T23A G47A], the fraction ligated was 0.783.
Variant GAGACCGCAACTGAAAAGTTGTAATCACTTGTCGTAAGACACTTTGCATGGGTTGAAGTTCTGCACGTAGAAGCAAAAGGC [T23A G47C] has a fraction ligated of 0.0295.
In the case of GAGACCGCAACTGAAAAGTTGTAATCACTTGTCGTAAGACACTTTGTATGGGTTGAAGTTCTGCACGTAGAAGCAAAAGGC [T23A G47T], the fraction ligated is reported as 0.09.
Variant GAGACCGCAACTGAAAAGTTGTAATCACTAGTCGTAAGACACTTTGGATGGGTTGAAGTTCTGCACGTAGAAGCAAAAGGC [T23A T30A] has a fraction ligated of 0.797.
Variant GAGACCGCAACTGAAAAGTTGTAATCACTCGTCGTAAGACACTTTGGATGGGTTGAAGTTCTGCACGTAGAAGCAAAAGGC [T23A T30C] has a fraction ligated of 0.793.
GAGACCGCAACTGAAAAGTTGTAATCACTGGTCGTAAGACACTTTGGATGGGTTGAAGTTCTGCACGTAGAAGCAAAAGGC [T23A T30G] was tested, and the fraction ligated was 0.803.
GAGACCGCAACTGAAAAGTTGTAATCACTTGTCGTAAGACACTCTGGATGGGTTGAAGTTCTGCACGTAGAAGCAAAAGGC [T23A T44C] gave a fraction ligated of 0.784.
Variant GAGACCGCAACTGAAAAGTTGTAATCACTTGTCGTAAGACACTATGGATGGGTTGAAGTTCTGCACGTAGAAGCAAAAGGC [T23A T44A] has a fraction ligated of 0.819.
GAGACCGCAACTGAAAAGTTGTAATCACTTGTCGTAAGACACTGTGGATGGGTTGAAGTTCTGCACGTAGAAGCAAAAGGC [T23A T44G] gave a fraction ligated of 0.801.
Variant GAGACCGCAACTGAAAAGTTGTCATCACTTGTCGTATGACACTTTGGATGGGTTGAAGTTCTGCACGTAGAAGCAAAAGGC [T23C A37T] has a fraction ligated of 0.796.
In the case of GAGACCGCAACTGAAAAGTTGTCATCACTTGTCGTAGGACACTTTGGATGGGTTGAAGTTCTGCACGTAGAAGCAAAAGGC [T23C A37G], the fraction ligated is reported as 0.837.
For GAGACCGCAACTGAAAAGTTGTCATCACTTGTCGTACGACACTTTGGATGGGTTGAAGTTCTGCACGTAGAAGCAAAAGGC [T23C A37C], the fraction ligated was 0.821.
In the case of GAGACCGCAACTGAAAAGTTGTAATCACTTGTCGTAAGACACTTGGGATGGGTTGAAGTTCTGCACGTAGAAGCAAAAGGC [T23A T45G], the fraction ligated is reported as 0.0214.
In the case of GAGACCGCAACTGAAAAGTTGTAATCACTTGTCGTAAGACACTTCGGATGGGTTGAAGTTCTGCACGTAGAAGCAAAAGGC [T23A T45C], the fraction ligated is reported as 0.222.
GAGACCGCAACTGAAAAGTTGTAATCACTTGTCGTAAGACACTTAGGATGGGTTGAAGTTCTGCACGTAGAAGCAAAAGGC [T23A T45A] gave a fraction ligated of 0.373.
With GAGACCGCAACTGAAAAGTTGTAATCACTTGTCGTAAAACACTTTGGATGGGTTGAAGTTCTGCACGTAGAAGCAAAAGGC [T23A G38A] the fraction ligated was 0.809.
Variant GAGACCGCAACTGAAAAGTTGTAATCACTTGTCGTAACACACTTTGGATGGGTTGAAGTTCTGCACGTAGAAGCAAAAGGC [T23A G38C] has a fraction ligated of 0.799.
Variant GAGACCGCAACTGAAAAGTTGTAATCACTTGTCGTAATACACTTTGGATGGGTTGAAGTTCTGCACGTAGAAGCAAAAGGC [T23A G38T] has a fraction ligated of 0.795.
With GAGACCGCAACTGAAAAGTTGTAATCACTTATCGTAAGACACTTTGGATGGGTTGAAGTTCTGCACGTAGAAGCAAAAGGC [T23A G31A] the fraction ligated was 0.816.
For GAGACCGCAACTGAAAAGTTGTAATCACTTCTCGTAAGACACTTTGGATGGGTTGAAGTTCTGCACGTAGAAGCAAAAGGC [T23A G31C], the fraction ligated was 0.779.
GAGACCGCAACTGAAAAGTTGTAATCACTTTTCGTAAGACACTTTGGATGGGTTGAAGTTCTGCACGTAGAAGCAAAAGGC [T23A G31T] showed a fraction ligated of 0.789.
Variant GAGACCGCAACTGAAAAGTTGTCATCGCTTGTCGTAAGACACTTTGGATGGGTTGAAGTTCTGCACGTAGAAGCAAAAGGC [T23C A27G] has a fraction ligated of 0.781.
With GAGACCGCAACTGAAAAGTTGTCATCCCTTGTCGTAAGACACTTTGGATGGGTTGAAGTTCTGCACGTAGAAGCAAAAGGC [T23C A27C] the fraction ligated was 0.775.
GAGACCGCAACTGAAAAGTTGTCATCTCTTGTCGTAAGACACTTTGGATGGGTTGAAGTTCTGCACGTAGAAGCAAAAGGC [T23C A27T] was tested, and the fraction ligated was 0.804.
For GAGACCGCAACTGAAAAGTTGTAATCACTTGTCGTAAGACACTTTGGATGGGTTAAAGTTCTGCACGTAGAAGCAAAAGGC [T23A G55A], the fraction ligated was 0.801.
GAGACCGCAACTGAAAAGTTGTAATCACTTGTCGTAAGACACTTTGGATGGGTTTAAGTTCTGCACGTAGAAGCAAAAGGC [T23A G55T] gave a fraction ligated of 0.783.
Variant GAGACCGCAACTGAAAAGTTGTAATCACTTGTCGTAAGACACTTTGGATGGGTTCAAGTTCTGCACGTAGAAGCAAAAGGC [T23A G55C] has a fraction ligated of 0.292.
GAGACCGCAACTGAAAAGTTGTAATCACTTGTCGTAAGACACTTTGGAAGGGTTGAAGTTCTGCACGTAGAAGCAAAAGGC [T23A T49A] gave a fraction ligated of 0.791.
In the case of GAGACCGCAACTGAAAAGTTGTAATCACTTGTCGTAAGACACTTTGGAGGGGTTGAAGTTCTGCACGTAGAAGCAAAAGGC [T23A T49G], the fraction ligated is reported as 0.827.
GAGACCGCAACTGAAAAGTTGTAATCACTTGTCGTAAGACACTTTGGACGGGTTGAAGTTCTGCACGTAGAAGCAAAAGGC [T23A T49C] showed a fraction ligated of 0.731.
With GAGACCGCAACTGAAAAGTTGTAATCACTTGTCGTAAGACATTTTGGATGGGTTGAAGTTCTGCACGTAGAAGCAAAAGGC [T23A C42T] the fraction ligated was 0.817.
GAGACCGCAACTGAAAAGTTGTAATCACTTGTCGTAAGACAATTTGGATGGGTTGAAGTTCTGCACGTAGAAGCAAAAGGC [T23A C42A] was tested, and the fraction ligated was 0.817.
GAGACCGCAACTGAAAAGTTGTAATCACTTGTCGTAAGACAGTTTGGATGGGTTGAAGTTCTGCACGTAGAAGCAAAAGGC [T23A C42G] was tested, and the fraction ligated was 0.822.
